Patent US20210095027A1 (Xencor, published 2021)

Molecular target: T1, human CD20 (human, UniProt P11836 1-297)
T1 sequence (looked up): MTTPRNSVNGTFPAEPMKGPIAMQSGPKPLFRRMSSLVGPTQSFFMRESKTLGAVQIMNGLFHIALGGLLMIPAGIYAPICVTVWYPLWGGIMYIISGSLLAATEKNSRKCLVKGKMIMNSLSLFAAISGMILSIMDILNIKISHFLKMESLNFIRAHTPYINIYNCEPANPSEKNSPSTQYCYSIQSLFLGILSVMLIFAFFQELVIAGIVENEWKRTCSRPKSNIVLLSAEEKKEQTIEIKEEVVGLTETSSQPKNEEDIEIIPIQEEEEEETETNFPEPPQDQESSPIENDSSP
Test: cell-based or functional assay

B1: XENP13676 (bispecific antibody)
chain 1: QVQLVQSGAEVKKPGASVKVSCKASGYTFTSYNMHWVRQAPGQGLEWMGAIYPGNGDTSYNQKFQGRVTITADKSISTAYMELSSLRSEDTAVYYCARSTYYGGDWYFNVWGAGTLVTVSSASTKGPSVFPLAPSSKSTSGGTAALGCLVKDYFPEPVTVSWNSGALTSGVHTFPAVLQSSGLYSLSSVVTVPSSSLGTQTYICNVNHKPSDTKVDKKVEPKSCDKTHTCPPCPAPPVAGPSVFLFPPKPKDTLMISRTPEVTCVVVDVKHEDPEVKFNWYVDGVEVHNAKTKPREEEYNSTYRVVSVLTVLHQDWLNGKEYKCKVSNKALPAPIEKTISKAKGQPREPQVYTLPPSREEMTKNQVSLTCDVSGFYPSDIAVEWESDGQPENNYKTTPPVLDSDGSFFLYSKLTVDKSRWEQGDVFSCSVMHEALHNHYTQKSLSLSPGK
chain 2: not shown
light: QIVLTQSPSSLSASVGDRVTITCRASSSVSYIHWFQQKPGKSPKPLIYATSNLASGVPVRFSGSGSGTDYTLTISSLQPEDFATYYCQQWTSNPPTFGGGTKVEIKRTVAAPSVFIFPPSDEQLKSGTASVVCLLNNFYPREAKVQWKVDNALQSGNSQESVTEQDSKDSTYSLSSTLTLSKADYEKHKVYACEVTHQGLSSPVTKSFNRGEC
EC50 of Jeko-1 target cell killing (RTCC) in the absence of rituximab: 0.024 mg/L | EC50 of Jeko-1 target cell killing (RTCC) in the presence of 3 µg/ml rituximab: 0.051 mg/L | EC50 of Jeko-1 target cell killing (RTCC) in the presence of 10 µg/ml rituximab: 0.093 mg/L | EC50 of Jeko-1 target cell killing (RTCC) in the presence of 30 µg/ml rituximab: 0.162 mg/L | EC50 of Jeko-1 target cell killing (RTCC) in the presence of 100 µg/ml rituximab: 0.387 mg/L | EC50 of RTCC against Ramos cells with purified T cells from six healthy donors: 0.0053 to 0.0143 mg/L
